Experimental findings from patent publication US20220177587A1, “METHODS AND USES OF VARIANT CD80 FUSION PROTEINS AND RELATED CONSTRUCTS” (Alpine Immune Sciences, Inc., priority 2018, published 2022) are described below.

The target of assay [1] is T1, CD28 (Homo sapiens, UniProt P10747). In words: Flow binding to Jurkat/IL2 reporter cells (CD28). The note with it: 33.3 nM. Set-up: host or cells: Jurkat cells expressing an IL-2-luciferase reporter. The method, then: (§1) Binding of selected immunomodulatory fusion proteins to cognate binding partners was assessed. […] Cells were sorted in a Bio-Rad S3 Cell Sorter (Bio-Rad Corp., USA) to >98% purity. Jurkat/IL2 reporter cells, which endogenously express CD28, were used to detect binding to CD28.
(§2) For staining and analysis by flow cytometry, 100,000 cells of appropriate transfected cells were plated in 96-well round bottom plates. Cells were spun down and resuspended in staining buffer (phosphate buffered saline (PBS), 1% bovine serum albumin (BSA), and 0.1% sodium azide) for 20 minutes to block non-specific binding. […] Primary staining was performed on ice for 45 minutes, before washing cells in staining buffer twice. Phycoerythrin (PE)-conjugated anti-human Fc (Jackson ImmunoResearch, USA) was diluted 1:150, added to cells and incubated another 30 minutes on ice. Cells were then washed twice with 150 μL/well stain buffer, fixed in 2% formaldehyde/PBS, and analyzed on Intellicyt flow cytometer (Intellicyt Corp., USA). PE Mean Fluorescence Intensity (MFI) was calculated for each cell type with FlowJo Version 10 software (FlowJo LLC, USA).
(§3) Binding assays were carried out to assess the specificity and affinity of multivalent proteins to cell-expressed CTLA-4, CD28, and PD-L1 counter structures.
(§4) The EC50 for binding also was determined.

A further assay deals with huPD-L1 (Homo sapiens, UniProt Q9NZQ7). In words: Flow binding to CHO cells stably expressing PD-L1. Also noted: huCTLA4 and huPD-L1, full-length mammalian surface expression constructs were generated; expressed in transfected cells; host or cells: CHO cells, lentiviral transduction, sorted to >98% purity. The note with it: CHO cells stably expressing PD-L1. The procedure: as §1, §2, §3, §4
huPD-L1, sequence (Q9NZQ7 19-290): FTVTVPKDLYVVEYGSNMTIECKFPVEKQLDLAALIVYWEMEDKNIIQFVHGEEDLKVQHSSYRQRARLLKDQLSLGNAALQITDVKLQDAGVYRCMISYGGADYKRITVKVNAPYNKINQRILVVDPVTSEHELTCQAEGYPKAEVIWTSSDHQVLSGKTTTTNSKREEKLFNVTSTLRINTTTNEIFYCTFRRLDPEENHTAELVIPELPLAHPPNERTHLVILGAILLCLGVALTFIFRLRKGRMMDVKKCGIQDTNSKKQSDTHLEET

The target of assay [2] is T1, CD28. In words: Jurkat/IL2 + CHO/OKT3 +/- PD-L1 reporter assay: PD-L1-dependent CD28 costimulation. The format is cell-based. The note with it: Jurkat/IL2 + CHO/OKT3/PD-L1, 5.0 nM. Set-up: host or cells: Jurkat cells expressing an IL-2-luciferase reporter. The procedure:
Jurkat cells were then plated at 50 μL/well for a total of 100,000 cells per well.
To each well, 25 μL of test protein was added to the Jurkat cells. […] The Jurkat cells with test or control proteins were incubated for 15 minutes at room temperature. CHO-derived artificial antigen presenting cells (aAPC) displaying transduced cell surface anti-CD3 single chain Fv (OKT3) (i.e., no PD-L1), or OKT3 and PD-L1 (i.e., +PD-L1), were brought to 0.8×10^6 cells/mL, and 25 μL of cells were added to each well, bringing the final volume of each well to 100 μL. […] Jurkat cells and CHO cells were incubated for 5 hours at 37 degrees Celsius in a humidified 5% CO2 incubation chamber. Plates were then removed from the incubator and acclimated to room temperature for 15 minutes. 100 μL of a cell lysis and luciferase substrate solution (BioGlo luciferase reagent, Promega) were added to each well and the plates were incubated on an orbital shaker for 10 minutes. Luminescence was measured with a 1 second per well integration time using a BioTek Cytation luminometer, and a relative luminescence value (RLU) was determined for each test sample.
(Reporter assays use an easily measured gene product as a stand-in for the process of interest.)

The target of the next assay is huCTLA4 (Homo sapiens, UniProt P16410). In words: Flow binding to CHO cells stably expressing CTLA4. Also noted: huCTLA4 and huPD-L1, full-length mammalian surface expression constructs were generated; expressed in transfected cells; host or cells: CHO cells, lentiviral transduction, sorted to >98% purity. The note with it: Table E23; CD80 IgV-Fc (inert) at 33.3 nM; CHO cells stably expressing CTLA4. The procedure: as §1, §2, §3, §4
huCTLA4, sequence (P16410 36-223): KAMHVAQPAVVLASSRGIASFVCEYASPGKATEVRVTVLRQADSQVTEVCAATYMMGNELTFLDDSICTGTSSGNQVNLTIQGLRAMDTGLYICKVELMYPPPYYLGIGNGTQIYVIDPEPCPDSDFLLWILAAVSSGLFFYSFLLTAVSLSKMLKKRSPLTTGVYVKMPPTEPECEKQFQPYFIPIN

Setting [3] is: Table E23, CD80 IgV-Fc (inert) at 33.3 nM.

B1: E35D/M47V/N48I/L85Q (protein)
chain: VIHVTKEVKEVATLSCGHNVSVEELAQTRIYWQKDKKMVLTMMSGDVTIWPEYKNRTIFDITNNLSIVILALRPSDEGTYECVVQKYEKDAFKREHLAEVTLSVKAD
On to B1, for which, in the assay with CD28 [1] (Table E4, Jurkat cells (CD28)), the “CD28 MFI at 33.3 nM” value stood at 692.

B2: E35D/L97R (protein)
chain: VIHVTKEVKEVATLSCGHNVSVEELAQTRIYWQKDKKMVLTMMSGDMNIWPEYKNRTIFDITNNLSIVILALRPSDEGTYECVVLKYEKDAFKREHRAEVTLSVKAD
For the molecule B2, the “PD-L1 MFI at 33.3 nM” value with huPD-L1 (Table E10, 33.3 nM) stood at 2614. Further, in the assay with CD28 [1] (Table E10, Jurkats (CD28)), the “CD28 MFI at 33.3 nM” value stood at 44.6. Also, the “Relative Luciferase Units (RLU), CD80 Cone 5.0 nM” value with CD28 [2] (Table E12) stood at 914 RLU.

B3: E35D/N48K/V68M/K89N (protein)
chain: VIHVTKEVKEVATLSCGHNVSVEELAQTRIYWQKDKKMVLTMMSGDMKIWPEYKNRTIFDITNNLSIMILALRPSDEGTYECVVLKYENDAFKREHLAEVTLSVKAD
B3: the “PD-L1 MFI at 33.3 nM” value with huPD-L1 (Table E19, 33.3 nM) is reported as 17425. Also, in the assay with CD28 [1] (Table E19, Jurkats (CD28)), the “CD28 MFI at 33.3 nM” value turned out to be 1534.

B4: T13R/E35D/M47LN68M (protein)
chain: VIHVTKEVKEVARLSCGHNVSVEELAQTRIYWQKDKKMVLTMMSGDLNIWPEYKNRTIFDITNNLSIMILALRPSDEGTYECVVLKYEKDAFKREHLAEVTLSVKAD
Take B4: the “PD-L1 MFI at 33.3 nM” value with huPD-L1 (Table E11, 33.3 nM) stood at 19969. The “CD28 MFI at 33.3 nM” value with CD28 [1] (Table E11, Jurkats (CD28)) came out at 15.6.

B5: E35D/M47V/N48K/L85M (protein)
chain: VIHVTKEVKEVATLSCGHNVSVEELAQTRIYWQKDKKMVLTMMSGDVKIWPEYKNRTIFDITNNLSIVILALRPSDEGTYECVVMKYEKDAFKREHLAEVTLSVKAD
B5: the “PD-L1 MFI at 33.3 nM” value in the assay with huPD-L1 (Table E10, 33.3 nM) is reported as 5660. In addition, the “CD28 MFI at 33.3 nM” value with CD28 [1] (Table E10, Jurkats (CD28)) amounted to 413. In the assay with CD28 [2] (Table E12), the “Relative Luciferase Units (RLU), CD80 Cone 5.0 nM” value is on record as 2116 RLU.

B6: E35D/N48K/L72V (protein)
chain: VIHVTKEVKEVATLSCGHNVSVEELAQTRIYWQKDKKMVLTMMSGDMKIWPEYKNRTIFDITNNLSIVILAVRPSDEGTYECVVLKYEKDAFKREHLAEVTLSVKAD
Regarding B6, in the assay with huPD-L1 (Table E10, 33.3 nM), the “PD-L1 MFI at 33.3 nM” value is 3031. Further, in the assay with CD28 [1] (Table E10, Jurkats (CD28)), the “CD28 MFI at 33.3 nM” value is reported as 582. The “Relative Luciferase Units (RLU), CD80 Cone 5.0 nM” value with CD28 [2] (Table E12) is reported as 1731 RLU.

B7: E35D/D46E/M47L/V68M/T79M/L85M (protein, UniProt P33681 35-288, looked up, variant E35D D46E M47L V68M T79M L85M)
T-lymphocyte activation …: VIHVTKEVKEVATLSCGHNVSVEELAQTRIYWQKDKKMVLTMMSGELNIWPEYKNRTIFDITNNLSIMILALRPSDEGMYECVVMKYEKDAFKREHLAEVTLSVKADFPTPSISDFEIPTSNIRRIICSTSGGFPEPHLSWLENGEELNAINTTVSQDPETELYAVSSKLDFNMTTNHSFMCLIKYGHLRVNQTFNWNTTKQEHFPDNLLPSWAITLISVNGIFVICCLTYCFAPRCRERRRNERLRRESVRPV
On to B7, for which the “PD-L1 MFI at 33.3 nM” value with huPD-L1 (Table E11, 33.3 nM) amounted to 8641. For the same molecule, in the assay with CD28 [1] (Table E11, Jurkats (CD28)), the “CD28 MFI at 33.3 nM” value was determined as 403. The “Relative Luciferase Units (RLU), CD80 Cone 5.0 nM” value with CD28 [2] (Table E13) is on record as 1137 RLU.

B8: H18Y/E35D/M47I/V68M/Y87N (protein, UniProt P33681 35-288, looked up, variant H18Y E35D M47I V68M Y87N)
T-lymphocyte activation …: VIHVTKEVKEVATLSCGYNVSVEELAQTRIYWQKDKKMVLTMMSGDINIWPEYKNRTIFDITNNLSIMILALRPSDEGTYECVVLKNEKDAFKREHLAEVTLSVKADFPTPSISDFEIPTSNIRRIICSTSGGFPEPHLSWLENGEELNAINTTVSQDPETELYAVSSKLDFNMTTNHSFMCLIKYGHLRVNQTFNWNTTKQEHFPDNLLPSWAITLISVNGIFVICCLTYCFAPRCRERRRNERLRRESVRPV
modifications: Fc fusion
B8: the “CD28 MFI at 33.3 nM” value with CD28 [1] (Table E11, Jurkats (CD28)) is given as 4038; with CD28 [1] (Table E16, consensus variants, Jurkats (CD28)), 1429.

B9: E35D/M47V/N48K/V68M/K89N GS(G4S)3 (protein, UniProt P33681 35-288, looked up, variant E35D M47V N48K V68M K89N)
T-lymphocyte activation …: VIHVTKEVKEVATLSCGHNVSVEELAQTRIYWQKDKKMVLTMMSGDVKIWPEYKNRTIFDITNNLSIMILALRPSDEGTYECVVLKYENDAFKREHLAEVTLSVKADFPTPSISDFEIPTSNIRRIICSTSGGFPEPHLSWLENGEELNAINTTVSQDPETELYAVSSKLDFNMTTNHSFMCLIKYGHLRVNQTFNWNTTKQEHFPDNLLPSWAITLISVNGIFVICCLTYCFAPRCRERRRNERLRRESVRPV
modifications: GS(G4S)3 linker
For B9, the “CD28 MFI at 33.3 nM” value with CD28 [1] (Table E25, linker variants, Jurkats (CD28)) amounted to 2109. In the assay with CD28 [2] (Table E26, linker variants), the “Relative Luciferase Units (RLU), CD80 Conc 5.0 nM” value was found to be 1400 RLU.

B10: H18R/A26P/E35D/D46N/M47V/V68M/A71G/D90P (protein, UniProt P33681 35-288, looked up, variant H18R A26P E35D D46N M47V V68M A71G D90P)
T-lymphocyte activation …: VIHVTKEVKEVATLSCGRNVSVEELPQTRIYWQKDKKMVLTMMSGNVNIWPEYKNRTIFDITNNLSIMILGLRPSDEGTYECVVLKYEKPAFKREHLAEVTLSVKADFPTPSISDFEIPTSNIRRIICSTSGGFPEPHLSWLENGEELNAINTTVSQDPETELYAVSSKLDFNMTTNHSFMCLIKYGHLRVNQTFNWNTTKQEHFPDNLLPSWAITLISVNGIFVICCLTYCFAPRCRERRRNERLRRESVRPV
modifications: Fc fusion
Consider B10, for which the “CTLA4 MFI at 33.3 nM” value with huCTLA4 was 17327. The “PD-L1 MFI at 33.3 nM” value with huPD-L1 (setting [3]) worked out at 29306. Besides, the “Relative Luciferase Units (RLU), CD80 Conc 5.0 nM” value with CD28 [2] (Table E24) turned out to be 972 RLU.

B11: E35D/M47L/V68M/E95V/L97Q (protein, UniProt P33681 35-288, looked up, variant E35D M47L V68M E95V L97Q)
T-lymphocyte activation …: VIHVTKEVKEVATLSCGHNVSVEELAQTRIYWQKDKKMVLTMMSGDLNIWPEYKNRTIFDITNNLSIMILALRPSDEGTYECVVLKYEKDAFKRVHQAEVTLSVKADFPTPSISDFEIPTSNIRRIICSTSGGFPEPHLSWLENGEELNAINTTVSQDPETELYAVSSKLDFNMTTNHSFMCLIKYGHLRVNQTFNWNTTKQEHFPDNLLPSWAITLISVNGIFVICCLTYCFAPRCRERRRNERLRRESVRPV
modifications: Fc fusion
Consider B11, for which, in the assay with huPD-L1 (Table E11, 33.3 nM), the “PD-L1 MFI at 33.3 nM” value stood at 18600. In addition, the “CD28 MFI at 33.3 nM” value in the assay with CD28 [1] (Table E11, Jurkats (CD28)) turned out to be 14. For the same molecule, the “Relative Luciferase Units (RLU), CD80 Cone 5.0 nM” value in the assay with CD28 [2] (Table E13) came out at 1086 RLU.

B12: H18V/A26P/E35D/M47V/V68L/A71G (protein, UniProt P33681 35-288, looked up, variant H18V A26P E35D M47V V68L A71G)
T-lymphocyte activation …: VIHVTKEVKEVATLSCGVNVSVEELPQTRIYWQKDKKMVLTMMSGDVNIWPEYKNRTIFDITNNLSILILGLRPSDEGTYECVVLKYEKDAFKREHLAEVTLSVKADFPTPSISDFEIPTSNIRRIICSTSGGFPEPHLSWLENGEELNAINTTVSQDPETELYAVSSKLDFNMTTNHSFMCLIKYGHLRVNQTFNWNTTKQEHFPDNLLPSWAITLISVNGIFVICCLTYCFAPRCRERRRNERLRRESVRPV
Consider B12, for which the “CTLA4 MFI at 33.3 nM” value in the assay with huCTLA4 stood at 13669. Also, the “PD-L1 MFI at 33.3 nM” value with huPD-L1 (setting [3]) is recorded as 55417. Further, the “Relative Luciferase Units (RLU), CD80 Conc 5.0 nM” value with CD28 [2] (Table E24) was found to be 881 RLU.
